The source of these data is article PMC11838012, “TRAM-LAG1-CLN8 family proteins are acyltransferases regulating phospholipid composition” (Science Advances, 2025).

Test in all cases: LC-MS/MS initial-rate acyltransferase assay
The target of one data set is T1, TLCD1 (Homo sapiens, UniProt Q96CP7).
T1 construct: full length, C-terminal FLAG and Strep tags kept; expressed in Flp-In T-REx 293 cells; purified in LMNG; monomer in micelles
T1 sequence (Q96CP7 36-247): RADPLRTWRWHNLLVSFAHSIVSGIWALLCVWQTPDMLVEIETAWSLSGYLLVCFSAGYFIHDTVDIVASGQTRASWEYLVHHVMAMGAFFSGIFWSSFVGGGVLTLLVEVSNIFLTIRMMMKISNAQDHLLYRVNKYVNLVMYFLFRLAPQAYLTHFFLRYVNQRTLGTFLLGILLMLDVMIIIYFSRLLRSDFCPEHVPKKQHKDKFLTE
Format: biochemical. The following applies: 100 uM oleoyl-CoA; pH 7.4, 30 C, 0.05% LMNG; shares the LPE site.

Substrate in data set [1]: CCCCCCCC/C=C\CCCCCCCC(=O)OC[C@@H](O)COP(=O)(O)OCCN
In kind it is biochemical, Caenorhabditis elegans. The following applies: 100 uM myristoyl-CoA, pH 7.4, 30 C, 0.05% LMNG.

Substrate in data set [2]: CCCCCCCC/C=C\CCCCCCCC(=O)OC[C@@H](O)COP(=O)(O)OCCN
In kind it is biochemical, Homo sapiens. The conditions noted are these: 100 uM oleoyl-CoA, pH 7.4, 30 C, 0.05% LMNG.

Substrate in data set [3]: CCCCCCCC/C=C\CCCCCCCC(=O)OC[C@@H](O)COP(=O)(O)OCCN
Format: biochemical, Saccharomyces cerevisiae. The following applies: 100 uM palmitoleoyl-CoA, pH 7.4, 30 C, 0.05% LMNG.

Take `Cc1ncc(C[n+]2csc(CCO)c2C)c(N)n1` [thiamine]: the “LC-MS/MS initial-rate acyltransferase assay” value on TLCD1 is listed as “a linear increase in the initial reaction rate (Vo) even at millimolar thiamine levels”.

B1: FLD-1 (Caenorhabditis elegans) (protein)
chain: MRQLAELLTDLLGPVPTMFLWVIVSFAFFRALQFIVRWYLFGKWTWPNFNFFDIRNRIRRRRRGGQEAENTENPPENEAEAGEQVEQEPEPDSRDLSAIPPNKKWRISNECVSLFHSVISGLWAAYALLYYKQLVQDLVNYRCDVAINLVLMSAGYLFHDLVDLLVNEQSARIIELLFHHVVVLSAFAVTMFFNRFLGVVVFGLLMELNSIFLHSRSLLNLYGVDKKSPSFRIIALLNMVTLFAFRLCVSAYLVYFVVVSIPDLEWYVSIINGLVIASLASTNTVLTYRLLAADGLLGSRRTRRTPAATAETQVGDVESGPLRTQVEDEDHHTIGVQTIHGTTEDATQTV
notes: codon-optimised, C-terminal His tag cut off by Factor Xa; expressed in S. cerevisiae BJ2168; purified in LMNG
As usually defined, the Km is the concentration of substrate that gives half-maximal velocity. As usually defined, the kcat is the number of substrate molecules converted per active site and unit of time at saturation. In the case of B1, in data set [1], the Km came out at 10.1 µM and the kcat is 0.608 s⁻¹.

B2: TLCD1 (Homo sapiens) (protein)
chain: RADPLRTWRWHNLLVSFAHSIVSGIWALLCVWQTPDMLVEIETAWSLSGYLLVCFSAGYFIHDTVDIVASGQTRASWEYLVHHVMAMGAFFSGIFWSSFVGGGVLTLLVEVSNIFLTIRMMMKISNAQDHLLYRVNKYVNLVMYFLFRLAPQAYLTHFFLRYVNQRTLGTFLLGILLMLDVMIIIYFSRLLRSDFCPEHVPKKQHKDKFLTE
notes: full length, C-terminal FLAG and Strep tags kept; expressed in Flp-In T-REx 293 cells; purified in LMNG; monomer in micelles
In the case of B2, in data set [2], the Km is reported as 67.5 µM and the kcat stood at 0.348 s⁻¹.

B3: YPR114w (Saccharomyces cerevisiae S288C) (protein)
chain: MDVLLSLPQPELFKTTVIPFLANRNIIKSEAILSNLHSIFYVAIFYHIWFLFGKWILFPHLVKWKLDYDQKHNVKKDEKTTSERQAQHYKKKYTSLINQSSVHLISLLQSIVVLYYSLKFLLDPKASAEPYQTSHSRVFTENRDTQVICIFAIGYFVWDIYISTMYSTFPFVVHGIISTVVFCIGLKPYIQYYAPVFLMFELSNPSLNFRWFGIKFLPQKSKFCSLLLLLNNLTLMVVFFAARIAWGWFQIGKLCYDFYQVRNEPGFLVFDTIVILAGNFVLDILNVIWFSTMVSVAAKVLKKGESVDKVTKNEQ
notes: full length, C-terminal His tag cut off by Factor Xa; expressed in S. cerevisiae BJ2168; purified in LMNG
For the molecule B3, in data set [3], the Km is 16.7 µM and the kcat was 2.225 s⁻¹.
